Results as given in PMC10593786.
One block for each substance: values may come before it.

Tests used:
[1] = molecular target: full-length wild-type Myo6, small insert isoform (FLMyo6 SI (WT)) (human) (UniProt Q9UM54)
[2] = molecular target: FLMyo6 (T888D.Q892E.V903D) (human) (UniProt Q9UM54)
[3] = molecular target: Jo-Myo6-In heavy chain (Streptococcus pneumoniae | human); experiment: co-purification, SDS-PAGE; CaM co-expressed with Jo-Myo6-In in Sf9 cells, purified by the Flag tag of the heavy chain, read by SDS-PAGE

decrease in maximal actin-activated ATPase activity per Head of FLMyo6 (WT, no-insert isoform) upon addition of GIPC1, compared to monomeric MD^Ins2 (gating in a dimer) [1]: 50%
Substance: full-length wild-type Myo6, small insert isoform (FLMyo6 SI (WT)) (from UniProt Q9UM54-2 1-1262; P0DP23 1-149) (complex)

maximal actin-activated ATPase rate of FLMyo6 (T888D.Q892E.V903D) upon GIPC1 addition (loss of gating) [2]: 2 fold
Substance: FLMyo6 (T888D.Q892E.V903D) (from UniProt Q9UM54-5 1-1253; P0DP23 1-149) (complex)

Substance: calmodulin (CaM) (from UniProt P0DP23 1-149) (natural protein)
stoichiometry N (CaM per heavy chain) [3]: 2
